Measured values as given in the supplement of paper PMC10126150.
± gives the standard deviation of the averaged measurements.

test system: ATP; assay: switch fluorescence ratio, 500 uM ATP over buffer (Cy3 cluster intensity, sum of 5 cycles each) (fold (ratio)); higher = stronger signal-on switching upon ATP binding; sequences stand for … in TCGTCGGCAGCGTCAGATGTGTATAAGAGACAGTTTTTTTTTTTTTTTTTTTTTTTTT…TC; conditions: aptamer strand: ATP DNA aptamer (quencher-CACCTGGGGGAGTATTGCGGAGGAAGG + anchor), 100 nM annealed; ATP concentration: 500 uM
How it was run: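 Imaging in selection buffer was followed by imaging after 15 min with 500 uM ATP at 22 °C, for Cy3-labelled switching-strand clusters annealed to 100 nM quencher-labelled ATP aptamer on a modified Illumina MiSeq flow-cell. Five of these buffer/ATP cycles ran, separated by NaOH stripping and re-annealing. The fluorescence ratio per cluster is summed target-cycle over summed buffer-cycle Cy3 intensity, averaged per switch-domain sequence; clusters outside 100-1000 RFU were removed.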
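Note: ATP exposure 15 min at 22 °C before imaging.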

| Sequence | switch fluorescence ratio |
| --- | --- |
| ATTTTAATAG | 0.9909 ± 0.0056 |
| ATTTTACAGC | 1.03 ± 0.0074 |
| ATTTTACCAT | 1.04 ± 0.075 |
| ATTTTACGAA | 1.028 ± 0.0065 |
| ATTTTAGATC | 1.01 ± 0.034 |
| ATTTTAGCTG | 1.01 ± 0.046 |
| ATTTTAGGGT | 0.989 ± 0.022 |
| ATTTTAGTGC | 1.01 ± 0.053 |
| ATTTTATATT | 1.02 ± 0.032 |
| ATTTTATTTT | 1.01 ± 0.029 |
| ATTTTCGGCT | 0.99 ± 0.0036 |
| ATTTTCTCCG | 1.43 ± 0.63 |
| ATTTTCTTGC | 1 ± 0.038 |
| ATTTTGAACA | 1.019 ± 0.0062 |
| ATTTTGAAGA | 1.01 ± 0.032 |
| ATTTTGAATC | 0.973 ± 0.013 |
| ATTTTGAGAC | 0.995 ± 0.026 |
| ATTTTGAGGA | 1.02 ± 0.015 |
| ATTTTGAGGC | 1.02 ± 0.035 |
| ATTTTGCCGT | 1.02 ± 0.027 |
| ATTTTGGAGC | 0.999 ± 0.058 |
| ATTTTGGCAG | 0.99 ± 0.049 |
| ATTTTGGGGA | 1.005 ± 0.01 |
| ATTTTGGGGT | 1 ± 0.014 |
| ATTTTGGTTT | 0.989 ± 0.025 |

| Sequence | switch fluorescence ratio |
| --- | --- |
| ATTTTGTCGG | 0.968 ± 0.018 |
| ATTTTGTTTG | 0.994 ± 0.012 |
| ATTTTTACCT | 1.08 ± 0.19 |
| ATTTTTATGA | 0.967 ± 0.015 |
| ATTTTTCTTA | 1.007 ± 0.0045 |
| ATTTTTGATC | 1.02 ± 0.032 |
| ATTTTTGGCA | 0.995 ± 0.033 |
| ATTTTTGGGA | 0.981 ± 0.028 |
| ATTTTTGTAG | 1.01 ± 0.017 |
| ATTTTTTACG | 1.02 ± 0.031 |
| ATTTTTTCGT | 1.04 ± 0.036 |
| ATTTTTTGAG | 1 ± 0.034 |
| ATTTTTTGCC | 0.962 ± 0.052 |
| ATTTTTTTGC | 1.03 ± 0.029 |
| CAAAAAACGG | 1.13 ± 0.23 |
| CAAAAAAGGG | 1.02 ± 0.021 |
| CAAAAATGGC | 1.02 ± 0.011 |
| CAAAACCTGA | 1.2 ± 0.15 |
| CAAAACGGTT | 1.02 ± 0.048 |
| CAAAAGGGAG | 1.036 ± 0.01 |
| CAAAAGGGGT | 1.004 ± 0.0063 |
| CAAAAGTAGA | 0.991 ± 0.036 |
| CAAAAGTTGA | 1.01 ± 0.053 |
| CAAAATGTTC | 1.021 ± 0.0086 |
| CAAACGAGGT | 0.994 ± 0.026 |

| Sequence | switch fluorescence ratio |
| --- | --- |
| CAAACGCCGA | 1.103 ± 0.0045 |
| CAAAGAGCTT | 1 ± 0.028 |
| CAAAGATAGT | 0.996 ± 0.037 |
| CAAAGGAGGC | 1.01 ± 0.048 |
| CAAAGGGCAA | 1.11 ± 0.038 |
| CAAAGGGGCG | 0.975 ± 0.045 |
| CAAAGGGTTA | 0.9906 ± 0.0086 |
| CAAAGTTATA | 1.0129 ± 0.00033 |
| CAAATACGAT | 1.05 ± 0.04 |
| CAAATCAGGA | 1 ± 0.038 |
| CAAATGCATA | 1.08 ± 0.017 |
| CAAATGGGAC | 1.09 ± 0.061 |
| CAAATGGTGG | 1.02 ± 0.0022 |
| CAAATGTTAT | 1.02 ± 0.0088 |
| CAAATTTAAG | 0.982 ± 0.028 |
| CAAATTTGCT | 0.967 ± 0.022 |
| CAACAACATT | 1.07 ± 0.12 |
| CAACATCTCG | 0.993 ± 0.019 |
| CAACATTTTC | 1.03 ± 0.054 |
| CAACGAGGGG | 1.02 ± 0.039 |
| CAACGCGCGG | 0.995 ± 0.045 |
| CAACGGGTTT | 0.997 ± 0.051 |
| CAACTCTTTT | 0.998 ± 0.038 |
| CAACTGCAGC | 1.26 ± 0.049 |
| CAACTGGGGC | 1.06 ± 0.022 |

| Sequence | switch fluorescence ratio |
| --- | --- |
| CAACTGTTTT | 1.04 ± 0.1 |
| CAAGAATCTG | 0.9606 ± 0.0091 |
| CAAGAGAATT | 0.9939 ± 0.005 |
| CAAGAGGGCT | 1.024 ± 0.0043 |
| CAAGAGGGGT | 1.01 ± 0.016 |
| CAAGATAGGG | 1.01 ± 0.026 |
| CAAGATGCTC | 1.43 ± 0.03 |
| CAAGATGGGG | 0.95 ± 0.023 |
| CAAGATTCGG | 0.986 ± 0.018 |
| CAAGCATTTT | 1.011 ± 0.0016 |
| CAAGCGGATT | 1 ± 0.033 |
| CAAGCTAGCG | 1.04 ± 0.016 |
| CAAGCTTGAA | 0.963 ± 0.026 |
| CAAGGAGGGT | 0.9726 ± 0.0079 |
| CAAGGAGTTA | 1.01 ± 0.04 |
| CAAGGGGACG | 1.004 ± 0.0082 |
| CAAGGGGGGC | 0.972 ± 0.03 |
| CAAGGGGTCG | 0.9946 ± 0.0066 |
| CAAGGGTATG | 1.03 ± 0.046 |
| CAAGGGTCGG | 0.996 ± 0.033 |
| CAAGGTGGAT | 1.051 ± 0.009 |
| CAAGGTTATA | 1 ± 0.022 |
| CAAGTACGGA | 1.1 ± 0.17 |
| CAAGTATCGG | 0.973 ± 0.027 |
| CAAGTATGGG | 0.974 ± 0.035 |

| Sequence | switch fluorescence ratio |
| --- | --- |
| CAAGTATTTA | 1.03 ± 0.011 |
| CAAGTCAAGA | 1.0299 ± 0.00028 |
| CAAGTCAAGG | 1.007 ± 0.0062 |
| CAAGTCAGTA | 0.991 ± 0.025 |
| CAAGTCTATT | 1.01 ± 0.04 |
| CAAGTGCCTG | 1.01 ± 0.025 |
| CAAGTGTATC | 1.02 ± 0.045 |
| CAAGTGTTGG | 1.01 ± 0.05 |
| CAAGTTAAAG | 1.01 ± 0.015 |
| CAAGTTGTGT | 0.9774 ± 0.0087 |
| CAAGTTTTTG | 1.01 ± 0.033 |
| CAATAAAATC | 0.9924 ± 0.0019 |
| CAATAAGGGG | 1.04 ± 0.1 |
| CAATAATGTG | 0.968 ± 0.034 |
| CAATACAGGG | 1.04 ± 0.042 |
| CAATAGATGG | 0.999 ± 0.016 |
| CAATAGTAGA | 1.01 ± 0.036 |
| CAATATAGTG | 0.981 ± 0.024 |
| CAATATATTT | 0.982 ± 0.0049 |
| CAATATCCCG | 1.05 ± 0.028 |
| CAATATGACT | 0.991 ± 0.092 |
| CAATCACAGG | 1.286 ± 0.0086 |
| CAATCGACCT | 1.27 ± 0.046 |
| CAATCTAAAT | 0.969 ± 0.027 |
| CAATGAAAGC | 1.04 ± 0.021 |

| Sequence | switch fluorescence ratio |
| --- | --- |
| CAATGAGCCG | 1.02 ± 0.052 |
| CAATGAGTTT | 0.97 ± 0.033 |
| CAATGATTGA | 1.02 ± 0.018 |
| CAATGCATGC | 1.14 ± 0.082 |
| CAATGCGGGG | 1.01 ± 0.023 |
| CAATGGAAAT | 0.984 ± 0.025 |
| CAATGGAGAA | 1.01 ± 0.021 |
| CAATGGAGGA | 1.011 ± 0.0058 |
| CAATGGCCTG | 0.984 ± 0.013 |
| CAATGGGAG | 0.988 ± 0.014 |
| CAATGGGGTA | 0.992 ± 0.012 |
| CAATGGGGTT | 1.02 ± 0.027 |
| CAATGGTTCA | 1.01 ± 0.013 |
| CAATGTCGTT | 0.985 ± 0.047 |
| CAATGTCTGG | 1.008 ± 0.0027 |
| CAATGTGAAA | 1.008 ± 0.0093 |
| CAATTATGAC | 1 ± 0.045 |
| CAATTCCGTG | 1.02 ± 0.022 |
| CAATTGCAAT | 1.02 ± 0.02 |
| CAATTGCGTA | 0.981 ± 0.068 |
| CAATTGGCCT | 1.05 ± 0.03 |
| CAATTGGTAC | 1.05 ± 0.013 |
| CAATTGTCGT | 0.991 ± 0.033 |
| CAATTGTGGG | 0.996 ± 0.026 |
| CAATTTAATG | 0.999 ± 0.019 |

| Sequence | switch fluorescence ratio |
| --- | --- |
| CAATTTACGG | 1.1 ± 0.036 |
| CAATTTCCAG | 1.02 ± 0.026 |
| CAATTTGAAG | 0.978 ± 0.051 |
| CAATTTGTGG | 0.968 ± 0.021 |
| CAATTTTATA | 1.033 ± 0.0026 |
| CAATTTTGGA | 1.01 ± 0.028 |
| CACAACACTC | 1.37 ± 0.044 |
| CACAACGGTG | 1.04 ± 0.033 |
| CACAAGGACG | 0.962 ± 0.017 |
| CACAGCAGTC | 2.62 ± 0.34 |
| CACAGGCCCA | 1.04 ± 0.056 |
| CACATTGTCC | 0.9773 ± 0.0025 |
| CACCGGTTCT | 1.03 ± 0.011 |
| CACCTGGGGG | 1.13 ± 0.11 |
| CACGACTTTT | 1.05 ± 0.04 |
| CACGAGTTGG | 1.014 ± 0.0049 |
| CACGATATTC | 1.18 ± 0.027 |
| CACGCGGAGG | 1.03 ± 0.039 |
| CACGGCCGAA | 0.973 ± 0.013 |
| CACGGGCGGG | 1.05 ± 0.063 |
| CACGGGCTTC | 1.016 ± 0.0084 |
| CACGGGGAAC | 1.28 ± 0.32 |
| CACGGGGGGC | 1.02 ± 0.054 |
| CACGGGGGGT | 1.02 ± 0.052 |
| CACGGGGTTG | 0.982 ± 0.069 |

| Sequence | switch fluorescence ratio |
| --- | --- |
| CACGGTACGT | 1.06 ± 0.022 |
| CACGTAATTA | 1.25 ± 0.048 |
| CACGTATTCA | 1.15 ± 0.045 |
| CACGTTTGTT | 1.027 ± 0.004 |
| CACTAAAGAT | 1.004 ± 0.0052 |
| CACTAATAAT | 1.033 ± 0.0029 |
| CACTAATTAA | 1.004 ± 0.009 |
| CACTACGAAT | 1.051 ± 0.007 |
| CACTAGAGTG | 1.021 ± 0.0063 |
| CACTAGATGG | 0.992 ± 0.02 |
| CACTAGTAAA | 0.9984 ± 0.0094 |
| CACTATAATG | 1.05 ± 0.042 |
| CACTCATTTT | 0.98 ± 0.033 |
| CACTCCTGTG | 1.01 ± 0.04 |
| CACTCGCCTC | 1.134 ± 0.0068 |
| CACTCTAGGC | 1.07 ± 0.02 |
| CACTGGACGG | 1.28 ± 0.049 |
| CACTGGCATG | 0.998 ± 0.029 |
| CACTGGGGGA | 0.9949 ± 0.0013 |
| CACTGTGTTG | 0.987 ± 0.035 |
| CACTTACGTT | 1.347 ± 0.012 |
| CACTTAGGGG | 1.01 ± 0.022 |
| CACTTAGGTG | 1.19 ± 0.032 |
| CACTTGGGCG | 1.033 ± 0.0077 |
| CACTTTGGTT | 1.02 ± 0.011 |
